# Measured values reported in patent US20240150440A1 (LUMEN BIOSCIENCE, published 2024).
# How the values were obtained:
# [1] = biological target: T1, SARS-CoV-2 spike protein on pseudotyped lentivirus (Wuhan Reference Pseudovirus) (SARS-CoV-2, UniProt P0DTC2 14-1273); experiment: cell-based or functional assay
# [2] = biological target: T2, recombinant SARS-CoV-2 RBD with C-terminal AviTag (SARS-CoV-2, UniProt P0DTC2 319-541); experiment: BLI, biotinylated RBD on streptavidin biosensors [Cont. 5]
# [3] = biological target: T2, recombinant SARS-CoV-2 RBD with …; experiment: ELISA, competition with coated ACE2-Fc for RBD [Cont. 5]
# [4] = biological target: T2, recombinant SARS-CoV-2 RBD with …; experiment: BLI, biotinylated RBD on streptavidin biosensors; OR: over-range
# [5] = biological target: T2, recombinant SARS-CoV-2 RBD with …; experiment: ELISA, competition with coated ACE2-Fc for RBD
# [6] = biological target: T2, recombinant SARS-CoV-2 RBD with …; experiment: BLI, biotinylated RBD on streptavidin biosensors [Cont. 2]
# [7] = biological target: T2, recombinant SARS-CoV-2 RBD with …; experiment: BLI, biotinylated RBD on streptavidin biosensors; OR: over-range [Cont. 2]
# [8] = biological target: SARS-CoV-2 Delta Variant spike protein on pseudotyped lentivirus (SARS-CoV-2 Delta variant); experiment: cell-based or functional assay
# [9] = biological target: T1, SARS-CoV-2 spike protein on pseudotyped …; experiment: cell-based or functional assay; remark: listed apart in the source
# [10] = biological target: T3, SARS-CoV-2 Alpha Variant RBD (SARS-CoV-2 Alpha variant); experiment: ELISA, RBD coated
# T3 construct: domain: RBD; coated on ELISA plates
# [11] = biological target: T4, SARS-CoV-2 Delta Variant RBD (SARS-CoV-2 Delta variant); experiment: ELISA, RBD coated
# T4 construct: domain: RBD; coated on ELISA plates
# [12] = biological target: T1, SARS-CoV-2 spike protein on pseudotyped …; experiment: cell-based or functional assay; remark: listed apart in the source
# [13] = biological target: T1, SARS-CoV-2 spike protein on pseudotyped …; experiment: cell-based or functional assay; remark: listed apart in the source
# [14] = biological target: T2, recombinant SARS-CoV-2 RBD with …; experiment: BLI, biotinylated RBD on streptavidin biosensors; OR: over-range [Cont. 1]
# [15] = biological target: T2, recombinant SARS-CoV-2 RBD with …; experiment: ELISA, competition with coated ACE2-Fc for RBD [Cont. 1]
# [16] = biological target: T1, SARS-CoV-2 spike protein on pseudotyped …; experiment: cell-based or functional assay; remark: listed apart in the source
# [17] = biological target: T5, SARS-CoV-2 Beta Variant RBD (SARS-CoV-2 Beta variant); experiment: ELISA, RBD coated
# T5 construct: domain: RBD; coated on ELISA plates
# [18] = biological target: T6, SARS-CoV-2 Gamma Variant RBD (SARS-CoV-2 Gamma variant); experiment: ELISA, RBD coated
# T6 construct: domain: RBD; coated on ELISA plates
# [19] = biological target: T2, recombinant SARS-CoV-2 RBD with …; experiment: ELISA, competition with coated ACE2-Fc for RBD [Cont. 4]
# [20] = biological target: T2, recombinant SARS-CoV-2 RBD with …; experiment: BLI, biotinylated RBD on streptavidin biosensors [Cont. 4]
# [21] = biological target: SARS-CoV-2 Gamma Variant spike protein on pseudotyped lentivirus (SARS-CoV-2 Gamma variant); experiment: cell-based or functional assay
# [22] = biological target: T1, SARS-CoV-2 spike protein on pseudotyped …; experiment: cell-based or functional assay; remark: listed apart in the source
binder,measurement,setting,value
"PP846 MBP-R5D-G6-H6 (VHH, Form: Monomer) VHH: QVQLVESGGGLVQPGGSLRLSCAASGRILAANIVHWYRQAPGKNREGVAGITSGGSTYYADSVKGRFTISRDNAKNTVYLQMNSLKPEDTAVYYCAAKPLGSPDDFDYWGQGTQVTVSS",infectivity % under 10 ug/mL VHH treatment,[1],77.1%
same,Kd,[2],564 nM
same,IC50,[3],7.5 nM
"PP807 MBP-R2C-B3-H6 (VHH, Form: Monomer) VHH: QVQLVESGGGLVQPGGSLRLSCAASGTYASYETIAWYRQAPGKQREKVARITGAGSSFYADSVKGRFTISRDNAKNTVYLQMNSLKPEDTAVYYCNADSIPPALRAANTGYWGQGTQVTVSS",infectivity % under 10 ug/mL VHH treatment,[1],75.3%
same,Kd,[4],~950 nM
same,IC50,[5],148 nM
"PP821 MBP-R5A-D6-H6 (VHH, Form: Monomer) VHH: QVQLVESGGGLVQPGGSLRLSCAASGNDWYINSAHWYRQAPGKEREFVASVSRGGSNNYRDSVKGRFTISRDNAKNTVYLQMNSLKPEDTAVYYCAALLETSSGDYTYWGQGTQVTVSS",infectivity % under 10 ug/mL VHH treatment,[1],76.7%
same,Kd,[6],100 nM
"PP817 MBP-R5A-B3-H6 (VHH, Form: Monomer) VHH: QVQLVESGGGLVQPGGSLRLSCAASGQLDRSNAMAWFRQAPGKGREWVASITSGASTQYADSVKGRFTISRDNAKNTVYLQMNSLKPEDTAVYYCAADRYRAIQRTQYSWGQGTQVTVSS",infectivity % under 10 ug/mL VHH treatment,[1],80%
same,Kd,[7],~5170 nM
"PP1150 MBP-5HVZ-PAPA-R5b-G1-H6 (VHH, Form: Dimer) VHH: QVQLVESGGGLVQPGGSLRLSCAASGSIGQIVLVHWFRQAPGKQRELVAGITSPSSTYYADSVKGRFTISRDNAKNTVYLQMNSLKPEDTAVYYCNTELEGKTQGFTGKTVWYDYWGQGTQVTVSS",Pseudovirus neutralization IC50,[8],0.43 nM
same,Pseudovirus neutralization IC50,[9],2.72 nM
same,infectivity % under 10 ug/mL VHH treatment,[1],2.31%
same,EC50,[10],20.1 nM
same,EC50,[11],0.86 nM
same,Pseudovirus inhibition IC50 [Cont. 3],[12],2.33 nM
MBP-5HVZ-R5B-G1-H6 (VHH) VHH: QVQLVESGGGLVQPGGSLRLSCAASGSIGQIVLVHWFRQAPGKQRELVAGITSPSSTYYADSVKGRFTISRDNAKNTVYLQMNSLKPEDTAVYYCNTELEGKTQGFTGKTVWYDYWGQGTQVTVSS,Pseudovirus inhibition IC50 [Cont. 3],[12],5.82 nM
dimeric VHH (VHH-5HVZ-MBP) R2C-F6 (VHH) VHH: QVQLVESGGGLVQPGGSLRLSCAASGRILAANIVHWYRQAPGKEREGVAGITTGGSNYYSDSVKGRFTISRDNAKNTVYLQMNSLKPEDTAVYYCNALGLGSASGSYESWGQGTQVTVSS,Pseudovirus inhibition IC50 [Cont. 1],[13],92.4 nM
same,Kd,[14],~0.96 nM
same,IC50,[15],6.5 nM
"PP815 MBP-R5A-A1-H6 (VHH, Form: Monomer) VHH: QVQLVESGGGLVQPGGSLRLSCAASGAELSYTAIHWFRQAPGKQREFVATINSGGSSYYADSVKGRFTISRDNAKNTVYLQMNSLKPEDTAVYYCTALLDSTYDYWGQGTQVTVSS",infectivity % under 10 ug/mL VHH treatment,[1],84.4%
same,Kd,[7],~2700 nM
"PP1113 MBP-5HVZ-PAPA-RN-29-H6 (VHH, Form: Dimer) VHH: QVQLVESGGGLVQPGGSLRLSCAASGYILSENLTAWFRQAPGKAREVVATVTSGDYTNYDDSVKGRFTISRDNAKNTVYLQMNSLKPEDTAVYYCAAGTSDWEVKWSHWGQGTQVTVSS",Pseudovirus neutralization IC50,[9],7.09 nM
same,infectivity % under 10 ug/mL VHH treatment,[1],6.25%
same,Pseudovirus inhibition IC50 [Cont. 9],[16],9.38 nM
same,EC50,[17],5.64 nM
same,EC50,[18],3.37 nM
same,EC50,[10],0.72 nM
"PP803 MBP-R2A-F3-H6 (VHH, Form: Monomer) VHH: QVQLVESGGGLVQPGGSLRLSCAASGSITSINWMHWFRQAPGKDREGVASISQTGRGSYADSVKGRFTISRDNAKNTVYLQMNSLKPEDTAVYYCAAASRTGTPYNYWGQGTQVTVSS",infectivity % under 10 ug/mL VHH treatment,[1],70.7%
same,Kd,[4],~1900 nM
"PP810 MBP-R2D-A6-H6 (VHH, Form: Monomer) VHH: QVQLVESGGGLVQPGGSLRLSCAASGSGASIGAMHWFRQAPGKGREWVASITSAGNTYYGDSVKGRFTISRDNAKNTVYLQMNSLKPEDTAVYYCNALAGANYESQWEEYNYWGQGTQVTVSS",infectivity % under 10 ug/mL VHH treatment,[1],77.5%
same,Kd,[14],~4600 nM
same,IC50,[15],0.1 nM
"PP814 MBP-R2E-F4-H6 (VHH, Form: Monomer) VHH: QVQLVESGGGLVQPGGSLRLSCAASGETFSSNAMHWFRQAPGKGREFVAAITSGGNDNYSDSVKGRFTISRDNAKNTVYLQMNSLKPEDTAVYYCNAPATEDTSHYPRNYWGQGTQVTVSS",infectivity % under 10 ug/mL VHH treatment,[1],84.7%
same,Kd,[7],~1600 nM
"PP836 MBP-R5D-A1-H6 (VHH, Form: Monomer) VHH: QVQLVESGGGLVQPGGSLRLSCAASGSISSYNAMHWFRQAPGKQREWVAGLTSSGSDGYVDSVKGRFTISRDNAKNTVYLQMNSLKPEDTAVYYCNAFSYHTYSRYDFWGQGTQVTVSS",infectivity % under 10 ug/mL VHH treatment,[1],55%
same,IC50,[19],6.2 nM
same,Kd,[20],527 nM
"PP811 MBP-R2D-D3-H6 (VHH, Form: Monomer) VHH: QVQLVESGGGLVQPGGSLRLSCAASGHIFSINNAAWVRQAPGKSREGVATIHSGGGTYYSDSVKGRFTISRDNAKNTVYLQMNSLKPEDTAVYYCNAEVSTGAGSRGRVSDVYWGQGTQVTVSS",infectivity % under 10 ug/mL VHH treatment,[1],75.9%
same,Kd,[14],~27000 nM
"PP1107 MBP-5HVZ-PAPA-RN-22-H6 (VHH, Form: Dimer) VHH: QVQLVESGGGLVQPGGSLRLSCAASGSISEINLLHWFRQAPGKQREWVATMTSGGSTDYADSVKGRFTISRDNAKNTVYLQMNSLKPEDTAVYYCAADEFTKYGHGRYWGQGTQVTVSS",Pseudovirus neutralization IC50,[21],0.649 nM
same,Pseudovirus neutralization IC50,[9],32.9 nM
same,infectivity % under 10 ug/mL VHH treatment,[1],34.3%
same,Pseudovirus inhibition IC50 [Cont. 9],[16],110 nM
same,EC50,[17],0.25 nM
same,EC50,[18],0.18 nM
same,EC50,[10],0.28 nM
"PP1140 MBP-4B0F-PAPA-R5d-B6-H6 (VHH, Form: Heptamer) VHH: QVQLVESGGGLVQPGGSLRLSCAASGRILAANIVHWYRQAPGKEREGVAGITSGGGSYYADSVKGRFTISRDNAKNTVYLQMNSLKPEDTAVYYCNALGLGQSSLYRSADPYDSWGQGTQVTVSS",Pseudovirus neutralization IC50,[9],2.07 nM
same,infectivity % under 10 ug/mL VHH treatment,[1],2.47%
same,Pseudovirus inhibition IC50 [Cont. 5],[22],7.04 nM
